Data reported in patent publication US5935811.

Molecular target: T1, NRSF/REST (lambda-HZ4 partial) (Homo sapiens) (UniProt Q13127)
T1 sequence: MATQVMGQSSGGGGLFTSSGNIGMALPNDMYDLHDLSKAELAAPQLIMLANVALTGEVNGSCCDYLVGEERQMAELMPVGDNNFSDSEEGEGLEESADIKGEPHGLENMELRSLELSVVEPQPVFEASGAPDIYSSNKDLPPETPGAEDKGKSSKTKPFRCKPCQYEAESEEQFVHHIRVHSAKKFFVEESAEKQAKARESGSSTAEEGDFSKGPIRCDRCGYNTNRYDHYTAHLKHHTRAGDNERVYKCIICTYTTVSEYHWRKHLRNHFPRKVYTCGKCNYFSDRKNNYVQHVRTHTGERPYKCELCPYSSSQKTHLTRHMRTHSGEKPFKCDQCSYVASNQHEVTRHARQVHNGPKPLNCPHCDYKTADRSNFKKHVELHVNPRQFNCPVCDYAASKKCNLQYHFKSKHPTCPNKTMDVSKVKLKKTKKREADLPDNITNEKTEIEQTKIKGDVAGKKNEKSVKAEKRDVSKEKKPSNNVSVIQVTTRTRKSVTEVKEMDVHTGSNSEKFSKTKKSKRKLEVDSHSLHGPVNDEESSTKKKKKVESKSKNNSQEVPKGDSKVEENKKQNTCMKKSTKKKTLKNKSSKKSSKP
Assay: cell_activity
Settings: pCAT3 reporter, maximum pCMV-HZ4, PC12 cells

Substance: pCAT3 SCG10 proximal promoter without NRSE
- activity (fold repression): 1.5
